Experiment: soluble on expression in E. coli; label from the status in PepcDB or PDB records
In the case of “MGSDKIHHHHHHMSATKIDAVYLDADVTAYKGNPFIEALPPLQESVNSAAALRSTSLFDASDLQKPRVVRAHSICRITNDFFQPLGSHMLLSERVSLMIRGGYVGRNPKTGDLQRHLQNGYERVQSGDLSSFRFEEAKSTAQSMLLIGCSGSGKTTSLARILDTYPQVIYHPTMNFEQVVYLKVDCSHNGSLKEICLNFFRALDKALGSNYEKKYGLKRNGIETMLALMAQIANAHAVGLLVIDEIQHLSRAKSGGPEAMLNFFVTMVNTIGVPVMLIGTPKAREIFEIDLRSARRGSGLGAIFWEPMKQGPNGKRNPEWAAFTDNLWKQQLLQSKDLVLTDDLRDLWYDLSQGVMDTVVKLFVLSQLRALALGKERLTPGLMKQVYKDELKPVHPMLEALRSGVPEKIAQYSDLMLPEMDKRLIQLQRDIAGMKVETPEELALKQLATDDERRIYLMLKDDYDSSLLVATVRKAFAENPKLTRPQLLPVILNWLSDTDNPVKPEQPKTQVKNTKPDQWDTLDWDDLRYISSQQQSAAAMHSALGTKGLLFDLRRRMT”, the “soluble on expression in E. coli” value is reported as “not soluble”.
In the case of “MGSDKIHHHHHHMSDADPKVPHRGHELLDVLARLGGSARNAQIAQVMDVSEETVRRLVKTLAKQGKVERVHGGTYLRGSQDAPMYSGALEQQPKEKTRIAKGVLELIRDGMTLFINVGSTTTYVAEQLRERRDLTIVTNSISTVASLADHNGSRVFLAGGEVSRSERGCFGRATEDFARRFAYDVLVIGADAMSPELGVLAANPREAELTRALLGNATRVIVAADYRKFSAIAPCIAAPLEAITDLVTDAAPPDALQDALDRCGVATHLAAKSGRITTRTPPPQDVGHSNTNRKTLSFPTEVS”, the “soluble on expression in E. coli” value is reported as “not soluble”.
In the case of “MGSDKIHHHHHHMSDIIDEVISSFKTSSIFINREYLLPDYIPDELPHREDQIRKIASILAPLYREEKPNNIFIYGLTGTGKTAVVKFVLSKLHKKFLGKFKHVYINTRQIDTPYRVLADLLESLDVKVPFTGLSIAELYRRLVKAVRDYGSQVVIVLDEIDAFVKKYNDDILYKLSRINSEVNKSKISFIGITNDVKFVDLLDPRVKSSLSEEEIIFPPYNAEELEDILTKRAQMAFKPGVLPDNVIKLCAALAAREHGDARRALDLLRVSGEIAERMKDTKVKEEYVYMAKEEIERDRVRDIILTLPFHSKLVLMAVVSISSEENVVSTTGAVYETYLNICKKLGVEAVTQRRVSDIINELDMVGILTAKVVNRGRYGKTKEIGLAVDKNIIVRSLIESDSRFADLWS”, the “soluble on expression in E. coli” value is reported as “not soluble”.
For “MGSDKIHHHHHHMSDLSQRIAELSPEKLKLLVQRLNNKQGEILLRSPIVPQSRELNSFPLSSAQQRLWFIDQLQPGNSAYNISVPMRLGGWLNVAALEQSFKEVVKRHEVLRTTFTVVDGQPLQVIASSLSFTLPVVDLQKLPQNQREAEVLRLASEEAQQPFDLAQGPLLRATLLQLAAAEYALLLTMHHIIADGWAIGVLIREIADLYKAFSVGKPSPLSELSIQYVDFAVWQQQWLQGQLETQLAYWQQQLGSIPVVELPSDFPRSTTQTFSGAREALVLPKTLCDRLKTLNQRQGITLFMVLLAAFGALLNWYTDREDIVVGTDIANRNQAETKALIGFFANQLVLRTNLSKNPTFLELLERVREMTLEAYAHQDLPFDKLVDALNPKRELNRTPLFQVKLVLENTQTPSLELPGLTISSLKIENKTVQFDLLLELNETEQGLFGIWEYSTDLFERDSIVRLSKNFATLLAEVATHPEAKLSELKAVLNQVDKQQHLAKEQVYQNTIQQKLMNVKRRANSRQSTSGNTNHDKN”, the “soluble on expression in E. coli” value was “not soluble”.
In the case of “MGSDKIHHHHHHMSDSAKQPELWLMGLGCEEERSTAVLDYLRHAGYSVVCRGRDDFGDTKPLGVVLDVSPFSHDGWGILLDIKNNPATRDVPILPVYLSQEGKIGGVFPAAGFFTLPIDTDYMMKKLTVLGLTDEADTWDLQVMVISKKGEESVAKAITSLGFEVVNAYTGKEAVALATTGRAYMIFCSVTLPDMHSFELLERFRLYPQVRNVPFFVLVKDAMKEGERLALSRQMDHLVRKKELSRDEFLAYLRRRG”, the “soluble on expression in E. coli” value is reported as “not soluble”.
For “MGSDKIHHHHHHMSDTHIGAKSLTIEEREQDYYDTFQEAVEIAIDEKVDFIIHSGDLFDTWIPGNRSMKVFRDAMMKLNDRQIPVFYVFGDHDRPRRNSESAAGIFDFLGLHILGRDEFAGIEREFSGMKVFIGGISNMKGYLRNQLKEEYKKAESASTGYKNSILISHQALDPIFIPEQCEAKVNDLPMNYSYIAMGHLHDFVEREIGPLLSYPGSTELKSDREINGLLKMGKGINVIDLDNGVASLHRVKLKKVRYQFKVESDPENYLEEIKSILDKYANAIGEKKPIVNLIINGQISMEEVYEDLKKINGAIFNRPQILKIVDMPNVPSGSSELREYFQAFLKDQKLTDLAMKVFQHTADGDKEAIIREAAGEAIDN”, the “soluble on expression in E. coli” value was “not soluble”.
For “MGSDKIHHHHHHMSDWTDRLPEAARAYIADRRVDEVECILSDIAGVARGKAMPAFKFGKQTSFFLPNSIFLQTITGEWADNPSGAFTEPDMILIPDYSTATAAPWTADITLQVIHDAVDQQGRPVPVSPRNVLRRVVELYNAEGWTPIVAPEMEFFLVARNIDPNMPVMPPMGRTGRRAAAKQAYSMSAVDEYGKVIDDIYDFAEAQGFEIDGILQEGGAGQVEINLAHGDPVALADQIFFFKRLIREAALRHDCFATFMAKPIEGEPGSAMHIHHSVVDSASKLNIFSDAKGGETEAFLHFIAGMQTHLPAAVALLAPYVNSYRRYVPDFAAPINLEWGRDNRTTGLRVPISGPEARRLENRLAGMDCNPYLGLAASLACGYLGLKERKMPQPECTGDAYMSETDLPYNLGDALDLLEEDAALRDVLGPEFCGVYDSVKRNEYKEFLQVISPWEREHLLLNV”, the “soluble on expression in E. coli” value was “not soluble”.
With “MGSDKIHHHHHHMSEIASTKARKRCAVYCRVSSDERLDQEFNSIDAQKEAGHAYVASQRSEGWISVADDYDDPGFSGGNTDRPGLKRLMADIERGQIDIVVVYKIDRLTRSLADFSKMVEVFERHEVSFVSVTQQFNTTTSMGRLMLNVLLSFAQFEREVTGERIRDKIAAAKRKGMWMGGVPPLGYDVDNRLLVINETEAAVVRRIFEEMLTIGSPTQIAVNLTADGITNKAWTTQEGQTRNGTRIDKKYLHNLLRNRIYLGELSHKGNWYPGAHLPIIDRELWDKVHAVLARDGHARSVETKIRSRTDALLRGLLYAPSGERMYPTYSRKNGRKYHYYVSKSESRFGAPGKSY” the “soluble on expression in E. coli” value was “not soluble”.
For “MGSDKIHHHHHHMSELITTGVDIGSGCIKTVVFKVNGDKVEWLGKETSRIRNRDPFQLTTETYNHMLKSAGVDAKDVAYVASTGDAENLSFATGHFYSMTTHGRGGLYLNPEARAVLDIGALNGRAIRMDGVGKVLSYKMTSQCASGSGQFLENIARYLGIAQDEIGSLSMKADDPEKVSSICAVLAETDVINMVSRGISASNILKGIHVSMAVRLAKLLKSIGAVDGIVQVTGGLALDTGLVAALNEAAEQEKVNLKAVSHPDSIYAGAIGAALWGAFRHEKLARLGQAA”, the “soluble on expression in E. coli” value was “not soluble”.
For “MGSDKIHHHHHHMSELRQQCLWEHVSKPTVAAQALAGEHKADVCVIGGGITGLSAAIHLLEQGKSVIVLEAWKIGHGGSGRNVGLVNAGTWIRPDDVEATLGQKQGSRLNKVLGEAPAEVFAMIERLGIDCQAQHKGTLHMAHNATGIADLEARHEQWRRRGADVELLTGAQCQEYCGTDKISAALLDRRAGTINPMGYTQGLAAAVTRLGGKIFQQSSVEGLEREGDGWRVKTARGAVRAEKVVISTGAYTEGDWSNLQKQFFRGYYYQVASKPLQGIAADKVLPHGQGSWDTRTVLSSIRRDDQGRLLLGSLGRVDNKPAWFVRSWADRIQSHYYPELGKVEWEMHWTGCIDFTPDHLMRLFEPAPGLVAVTGYNGRGNTTGTVIGRAFAEFLLKGEADSLPIPFSPMSGVSAPSLRTAFYESGFSLYHAGQCLRVVL”, the “soluble on expression in E. coli” value was “not soluble”.
In the case of “MGSDKIHHHHHHMSERLRVLVVSHGHPAMSLGGAEIASHSLHKGLNTLPGVESIYLARVGHPVPRHGASALMSLRLAVDEVLFHADDYDHFFLSNGDTEAIRRDLLRFIGDLSPHVIHFHHLIGMGMEALYALREALPEAVIVVTFHEYLSLCHNHGQMVKRPSAQLCNSSSPISCHGCFPDIPVSRFLRREEFLRGMLGLADAFISPSMFLANRYVEWGIDAEKLSVIDNGIVMGEAAPVRDLPVPSARRNRFAYFGQMTPFKGIDVLVDAVSRVPEEIWGEDSCLMIFGGNLERQPAEFQERLKKLIDDAGRRVRFYGAYQNADMPRLMRSVDWVVLPSIWWENSPVVIQEALHHRRPIICSDIGGMAEKVQDGRDGLHFRAGSAQDLADRLSDVLVKPEAWDRLHATLRPPTGHAESARAHADLYRRLLKDRRSPLGAAQYEAAAQAVV”, the “soluble on expression in E. coli” value is reported as “not soluble”.
In the case of “MGSDKIHHHHHHMSESKIDNRLWSSKARNLSPYVPGEQPQHDDLCKLNTNENPFPPSPKVGEAITKVLAQQADDLRLYPAPESEELRGALAALYNLDINQVFVGNGSDEVLALVFASFFLKNRPVLAPDISYSFYPVYANTFGIELVQIPLEADFSISPDAYRRPCSGIIIANPNAPTGLLLSLADIRKLAGEHSDSVIVIDEAYIDFAQLEEASAESQMSAISLINEFDNLLVTQTFSKSRSLAGLRVGMAFGNASLIEALTRMKNSFNSYPLDKLAQAGATASVLDVEYFEQTCQQVIDLRTSLTAELTALGYDVLPSHANFVFARPHDGAASQVAEVLREQGIIVRHFDKPRINEYLRITIGTPSQHERLINALKALQAVADVEAS”, the “soluble on expression in E. coli” value is reported as “not soluble”.
For “MGSDKIHHHHHHMSFPDVTNYYLFAQVMACGSISAASRELGLPKSTISRKMALLEQEQGTRLFHRSRSGLKLTDVGREFLVHCERLVSAAESAQQVTQRLLDKPRGKVEISAPYALSQSLLVQVLPEFMSLYPEVEIQLVVTNRPVNLIEEGIDIALRVRKNIEDSSLIARPISQAPQTLYIAPDLINQNSITEPEDLLTFEHLSMHYTNGRYGYELIHSSGLQKNIRIKPRLITDDMIVLREAAIKKLGIVALPNYLCNDAVNSGELVPVLTDWHLPIGIMHITYSHRRGILPAVRVLIDFLAEKLPHLAQQQF”, the “soluble on expression in E. coli” value was “not soluble”.
In the case of “MGSDKIHHHHHHMSHDTVSPGLSLREIRAILAVAEQRGFSSAARRLNISQSSLSRTIHRAESVLAIRLFQRGWGGAEPTPEGEIVRQHCTQVMAELLHERDALMAAGLTRLPLPLDLRWRDLACVAAVVHTGKTTTAAKWLRTSQSSVSRTLGAISVRLGSPLFQRSGEGLRAEPLAERLVALRDRMCARMQPLQERLGHLAGEVTGRLAVGMTPFCEQERVAQAFGDLLVAYPQLRLSAVTGSYVMLTDALRCGEIDLVVGLLRELGEDDELAELPLAEEAITVLARSDHPCAVRSVSMEDLARQTWIVAPAGTPIRAYFERLFLGMGKTPPVQTCEIVTFHLAESMVRESQSLALLLYSPRKVRELPPGLVRVPVTLPDNRRHIGVTYRRDAGLSFTQRQFIDGLAKRFASDDDAEGNAP”, the “soluble on expression in E. coli” value is reported as “not soluble”.
In the case of “MGSDKIHHHHHHMSIKSDKWIRRMSEEFGMIDPFEPNQIKEADGQRIISYGTSSYGYDIRCANEFKIFTNINSTIVDPKNFDPKNFVTVEDDCCIIPPNSFALARTVEYFRIPRNVLTVCLGKSTYARCGIIVNVTPFEPEWEGYVTLEFSNTTPLPAKIYAGEGVAQVLFFESDEVCETSYKDRNGKYMGQTGVTLPKA”, the “soluble on expression in E. coli” value is reported as “not soluble”.
In the case of “MGSDKIHHHHHHMSISLATISGRVHAGERISDEEALFLFESRDPLAVGELAAAVNRRRNGDRVFFNVNRHINHTNICVNRCSFCAFYRAADEPGAYLYDLEEIRNRAAEAHAQGATEIHIVGGLHPDLPFDFYLAMLRTVKEVSPDLHVKAFTAVEIEYLSRLAGLSTAETLTVLKEAGLGSLPGGGAEIFAPAVRNRLCPEKISGDKWLAIMEEVHRAGLKSNATMLYGHIESYADRVDHMRRLRELQDRTGGFQVFIPLAFQKDNNPLGHLKRPGPGGVDALLTLAVARIYLDNFANIKAYWVMLGVKIAQTSLAFGVNDLDGTVVEEKIGHDAGAASPQTMGRDEIVSLIRTAGRVPVERDTLYNELRVY”, the “soluble on expression in E. coli” value is reported as “not soluble”.

— the DeepSol protein solubility set
